Measured values: article PMC2884070 (Journal of hepatology, 2010)

B1: domain 2 of JFH-1 NS5A (domain or fragment)
chain: NTYDVDMVDANLLMEGGVAQTEPESRVPVLDFLEPMAEEESDLEPSIPSECMLPRSGFPRALPAWARPDYNPPLVESWRRPDYQPPTVAGCALP
B2: full-length NS5A Con1-His (genotype 1b) (natural protein)
chain: SGSWLRDVWDWICTVLTDFKTWLQSKLLPRLPGVPFFSCQRGYKGVWRGDGIMQTTCPCGAQITGHVKNGSMRIVGPRTCSNTWHGTFPINAYTTGPCTPSPAPNYSRALWRVAAEEYVEVTRVGDFHYVTGMTTDNVKCPCQVPAPEFFTEVDGVRLHRYAPACKPLLREEVTFLVGLNQYLVGSQLPCEPEPDVAVLTSMLTDPSHITAETAKRRLARGSPPSLASSSASQLSAPSLKATCTTRHDSPDADLIEANLLWRQEMGGNITRVESENKVVILDSFEPLQAEEDEREVSVPAEILRRSRKFPRAMPIWARPDYNPPLLESWKDPDYVPPVVHGCPLPPAKAPPIPPPRRKRTVVLSESTVSSALAELATKTFGSSESSAVDSGTATASPDQPSDDGDAGSDVESYSSMPPLEGEPGDPDLSDGSWSTVSEEASEDVVCC
B3: full-length NS5A JFH-1-His (genotype 2a) (natural protein)
chain: SGSWLRDVWDWVCTILTDFKNWLTSKLFPKLPGLPFISCQKGYKGVWAGTGIMTTRCPCGANISGNVRLGSMRITGPKTCMNTWQGTFPINCYTEGQCAPKPPTNYKTAIWRVAASEYAEVTQHGSYSYVTGLTTDNLKIPCQLPSPEFFSWVDGVQIHRFAPTPKPFFRDEVSFCVGLNSYAVGSQLPCEPEPDADVLRSMLTDPPHITAETAARRLARGSPPSEASSSVSQLSAPSLRATCTTHSNTYDVDMVDANLLMEGGVAQTEPESRVPVLDFLEPMAEEESDLEPSIPSECMLPRSGFPRALPAWARPDYNPPLVESWRRPDYQPPTVAGCALPPPKKAPTPPPRRRRTVGLSESTISEALQQLAIKTFGQPPSSGDAGSSTGAGAAESGGPTSPGEPAPSETGSASSMPPLEGEPGDPDLESDQVELQPPPQGGGVAPGSGSGSWSTCSEEDDTTVCC
B4: full-length NS5A H77-His (genotype 1a) (natural protein)
chain: SGSWLRDIWDWICEVLSDFKTWLKAKLMPQLPGIPFVSCQRGYRGVWRGDGIMHTRCHCGAEITGHVKNGTMRIVGPRTCKNMWSGTFFINAYTTGPCTPLPAPNYKFALWRVSAEEYVEIRRVGDFHYVSGMTTDNLKCPCQIPSPEFFTELDGVRLHRFAPPCKPLLREEVSFRVGLHEYPVGSQLPCEPEPDVAVLTSMLTDPSHITAEAAGRRLARGSPPSMASSSASQLSAPSLKATCTANHDSPDAELIEANLLWRQEMGGNITRVESENKVVILDSFDPLVAEEDEREVSVPAEILRKSRRFAPALPVWARPDYNPLLVETWKKPDYEPPVVHGCPLPPPRSPPVPPPRKKRTVVLTESTLPTALAELATKSFGSSSTSGITGDNTTTSSEPAPSGCPPDSDVESYSSMPPLEGEPGDPDLSDGSWSTVSSGADTEDVVCC

Target: GST-CypA (cyclophilin A) (human, UniProt P62937 1-165)
Assay: radioligand binding

| Binder | Kd [µM] |
| --- | --- |
| B1 | 69 |
| B2 | 126 |
| B3 | 108 |
| B4 | 131 |
